Measured values as given in the supplement of paper PMC7125110.
± gives the standard error. Variants at the floor of the assay were thinned out.

B1: glmS ribozyme (parent)
chain: AUAAAAGCGCCAGAACUACAGAAAUGUAGUUGACGAGGAGGAGGUUUAUCGAAUUUUCGGCGGAUGCCUCCAAA

Legend:
Conditions in all cases: with glucosamine-6-phosphate
[1] = variants of: B1; experiment: self-cleavage kobs at 160 uM GlcN6P; higher = faster cleavage; RNA array
Outline: (§1)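 Weighted Michaelis–Menten fits across concentrations supplied kcat and KM, based on kobs from one- or two-exponential decay fits to normalised per-tile medians. The data came from barcoded ribozyme variants transcribed in situ by E. coli RNA polymerase on sequenced MiSeq chips and tracked at 37 °C by a hybridised Cy3 probe. Glucosamine-6-phosphate (40 μM to 10 mM) in HEPES/KCl/Mg(OAc)2 buffer was flowed in.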

[2] = variants of: B1; experiment: self-cleavage kobs at 640 uM GlcN6P; higher = faster cleavage; RNA array
Outline: as §1

[3] = variants of: B1; experiment: self-cleavage kobs at 10000 uM GlcN6P; higher = faster cleavage; RNA array
Outline: as §1

[4] = variants of: B1; experiment: self-cleavage kobs at 2500 uM GlcN6P; higher = faster cleavage; RNA array
Outline: as §1

Row | Variant | self-cleavage kobs at 160 uM GlcN6P [1] [s⁻¹] | self-cleavage kobs at 640 uM GlcN6P [2] [s⁻¹] | self-cleavage kobs at 10000 uM GlcN6P [3] [s⁻¹] | self-cleavage kobs at 2500 uM GlcN6P [4] [s⁻¹]
1 | A48C G51C | < 1e-05 | < 1e-05 | – | –
2 | G9A U46G | < 1e-05 | < 1e-05 | < 1e-05 | –
3 | U30G G43A U47G | < 1e-05 | < 1e-05 | – | < 1e-05
4 | C16U C58A | 0.000528 ± 0.00025 | 0.000131 ± 2.7e-05 | 0.00094 ± 0.00015 | 0.000305 ± 6.1e-05
5 | A6C G40A A52G C67U | < 1e-05 | < 1e-05 | – | < 1e-05
6 | C11G A39C G40U | < 1e-05 | < 1e-05 | – | < 1e-05
7 | C8U U55A | < 1e-05 | < 1e-05 | – | < 1e-05
8 | G32U C61U | < 1e-05 | < 1e-05 | – | –
9 | C11A A14C G35A C50G C71G | 0.000211 ± 3.9e-05 | 0.000433 ± 0.00014 | – | 0.000131 ± 4.3e-05
10 | C61G U65A | < 1e-05 | < 1e-05 | < 1e-05 | < 1e-05
11 | C8A G51U | < 1e-05 | < 1e-05 | – | –
12 | G35C G40C U47A G62U | < 1e-05 | < 1e-05 | – | –
13 | A6U U30G G62U | < 1e-05 | < 1e-05 | – | –
14 | C10U A39U G59A C70U | < 1e-05 | – | – | < 1e-05
15 | A36G C61G | < 1e-05 | < 1e-05 | < 1e-05 | –
16 | G13A G51A C70A | 6.55e-05 ± 2.4e-05 | – | – | –
17 | U31G G35A C67A | < 1e-05 | < 1e-05 | – | –
18 | C10G A48C G51U U65C | < 1e-05 | < 1e-05 | – | < 1e-05
19 | G43U G66U C67U | < 1e-05 | – | – | –
20 | C11G G37C G40A U45A C70U | < 1e-05 | – | – | –
21 | A42U U56G C61U | < 1e-05 | – | – | –
22 | U54G U56A | 0.000806 ± 0.00016 | 0.00244 ± 0.00071 | 0.0311 ± 0.013 | 0.012 ± 0.0054
23 | G13A G41U U49A G51C | < 1e-05 | – | – | –
24 | U31C G62A | < 1e-05 | < 1e-05 | < 1e-05 | < 1e-05
25 | A6C G66U | < 1e-05 | < 1e-05 | – | < 1e-05
